Values quoted from earlier work in US20200069786A1, “COMPOSITION AND PROCESS FOR PREPARING VACCINE” (TREOS BIO ZRT., priority 2018, published 2020).
Where two headings read alike, the source gives them in different places.

B1: TRAG-3 (protein, UniProt Q9Y5P2 1-127, looked up)
Chondrosarcoma-associated …: MWMGLIQLVEGVKRKDQGFLEKEFYHKTNIKMRCEFLACWPAFTVLGEAWRDQVDWSRLLRDAGLVKMSRKPRASSPLSNNHPPTPKRRGSGRHPLNPGPEALSKFPRQPGREKGPIKEVPGTKGSP
B2: TPTE (protein, UniProt P56180 1-551, looked up)
Putative tyrosine-protein …: MNESPDPTDLAGVIIELGPNDSPQTSEFKGATEEAPAKESPHTSEFKGAARVSPISESVLARLSKFEVEDAENVASYDSKIKKIVHSIVSSFAFGLFGVFLVLLDVTLILADLIFTDSKLYIPLEYRSISLAIALFFLMDVLLRVFVERRQQYFSDLFNILDTAIIVILLLVDVVYIFFDIKLLRNIPRWTHLLRLLRLIILLRIFHLFHQKRQLEKLIRRRVSENKRRYTRDGFDLDLTYVTERIIAMSFPSSGRQSFYRNPIKEVVRFLDKKHRNHYRVYNLCSERAYDPKHFHNRVVRIMIDDHNVPTLHQMVVFTKEVNEWMAQDLENIVAIHCKGGTDRTGTMVCAFLIASEICSTAKESLYYFGERRTDKTHSEKFQGVKTPSQKRYVAYFAQVKHLYNWNLPPRRILFIKHFIIYSIPRYVRDLKIQIEMEKKVVFSTISLGKCSVLDNITTDKILIDVFDGLPLYDDVKVQFFYSNLPTYYDNCSFYFWLHTSFIENNRLYLPKNELDNLHKQKARRIYPSDFAVEILFGEKMTSSDVVAGSD
B3: MAGE-B6 (protein, UniProt Q8N7X4 1-407, looked up)
Melanoma-associated antigen B6: MPRGHKSKLRTCEKRQETNGQPQGLTGPQATAEKQEESHSSSSSSRACLGDCRRSSDASIPQESQGVSPTGSPDAVVSYSKSDVAANGQDEKSPSTSRDASVPQESQGASPTGSPDAGVSGSKYDVAANGQDEKSPSTSHDVSVPQESQGASPTGSPDAGVSGSKYDVAAEGEDEESVSASQKAIIFKRLSKDAVKKKACTLAQFLQKKFEKKESILKADMLKCVRREYKPYFPQILNRTSQHLVVAFGVELKEMDSSGESYTLVSKLGLPSEGILSGDNALPKSGLLMSLLVVIFMNGNCATEEEVWEFLGLLGIYDGILHSIYGDARKIITEDLVQDKYVVYRQVCNSDPPCYEFLWGPRAYAETTKMRVLRVLADSSNTSPGLYPHLYEDALIDEVERALRLRA
B4: MAGE-B4 (protein, UniProt O15481 1-346, looked up)
Melanoma-associated antigen B4: MPRGQKSKLRAREKRQRTRGQTQDLKVGQPTAAEKEESPSSSSSVLRDTASSSLAFGIPQEPQREPPTTSAAAAMSCTGSDKGDESQDEENASSSQASTSTERSLKDSLTRKTKMLVQFLLYKYKMKEPTTKAEMLKIISKKYKEHFPEIFRKVSQRTELVFGLALKEVNPTTHSYILVSMLGPNDGNQSSAWTLPRNGLLMPLLSVIFLNGNCAREEEIWEFLNMLGIYDGKRHLIFGEPRKLITQDLVQEKYLEYQQVPNSDPPRYQFLWGPRAHAETSKMKVLEFLAKVNDTTPNNFPLLYEEALRDEEERAGARPRVAARRGTTAMTSAYSRATSSSSSQPM
B5: SAGE1 (protein, UniProt Q9NXZ1 1-904, looked up)
Sarcoma antigen 1: MQASPLQTSQPTPPEELHAAAYVFTNDGQQMRSDEVNLVATGHQSKKKHSRKSKRHSSSKRRKSMSSWLDKQEDAAVTHSICEERINNGQPVADNVLSTAPPWPDATIAHNIREERMENGQSRTDKVLSTAPPQLVHMAAAGIPSMSTRDLHSTVTHNIREERMENGQPQPDNVLSTGPTGLINMAATPIPAMSARDLYATVTHNVCEQKMENVQPAPDNVLLTLRPRRINMTDTGISPMSTRDPYATITYNVPEEKMEKGQPQPDNILSTASTGLINVAGAGTPAISTNGLYSTVPHNVCEEKMENDQPQPNNVLSTVQPVIIYLTATGIPGMNTRDQYATITHNVCEERVVNNQPLPSNALSTVLPGLAYLATADMPAMSTRDQHATIIHNLREEKKDNSQPTPDNVLSAVTPELINLAGAGIPPMSTRDQYATVNHHVHEARMENGQRKQDNVLSNVLSGLINMAGASIPAMSSRDLYATITHSVREEKMESGKPQTDKVISNDAPQLGHMAAGGIPSMSTKDLYATVTQNVHEERMENNQPQPSYDLSTVLPGLTYLTVAGIPAMSTRDQYATVTHNVHEEKIKNGQAASDNVFSTVPPAFINMAATGVSSMSTRDQYAAVTHNIREEKINNSQPAPGNILSTAPPWLRHMAAAGISSTITRDLYVTATHSVHEEKMTNGQQAPDNSLSTVPPGCINLSGAGISCRSTRDLYATVIHDIQEEEMENDQTPPDGFLSNSDSPELINMTGHCMPPNALDSFSHDFTSLSKDELLYKPDSNEFAVGTKNYSVSAGDPPVTVMSLVETVPNTPQISPAMAKKINDDIKYQLMKEVRRFGQNYERIFILLEEVQGSMKVKRQFVEFTIKEAARFKKVVLIQQLEKALKEIDSHCHLRKVKHMRKR
B6: ATAD2 (protein, UniProt Q6PL18 1-1390, looked up)
ATPase family AAA …: MVVLRSSLELHNHSAASATGSLDLSSDFLSLEHIGRRRLRSAGAAQKKPAATTAKAGDGSSVKEVETYHRTRALRSLRKDAQNSSDSSFEKNVEITEQLANGRHFTRQLARQQADKKKEEHREDKVIPVTRSLRARNIVQSTEHLHEDNGDVEVRRSCRIRSRYSGVNQSMLFDKLITNTAEAVLQKMDDMKKMRRQRMRELEDLGVFNETEESNLNMYTRGKQKDIQRTDEETTDNQEGSVESSEEGEDQEHEDDGEDEDDEDDDDDDDDDDDDDDEDDEDEEDGEEENQKRYYLRQRKATVYYQAPLEKPRHQRKPNIFYSGPASPARPRYRLSSAGPRSPYCKRMNRRRHAIHSSDSTSSSSSEDEQHFERRRKRSRNRAINRCLPLNFRKDELKGIYKDRMKIGASLADVDPMQLDSSVRFDSVGGLSNHIAALKEMVVFPLLYPEVFEKFKIQPPRGCLFYGPPGTGKTLVARALANECSQGDKRVAFFMRKGADCLSKWVGESERQLRLLFDQAYQMRPSIIFFDEIDGLAPVRSSRQDQIHSSIVSTLLALMDGLDSRGEIVVIGATNRLDSIDPALRRPGRFDREFLFSLPDKEARKEILKIHTRDWNPKPLDTFLEELAENCVGYCGADIKSICAEAALCALRRRYPQIYTTSEKLQLDLSSINISAKDFEVAMQKMIPASQRAVTSPGQALSTVVKPLLQNTVDKILEALQRVFPHAEFRTNKTLDSDISCPLLESDLAYSDDDVPSVYENGLSQKSSHKAKDNFNFLHLNRNACYQPMSFRPRILIVGEPGFGQGSHLAPAVIHALEKFTVYTLDIPVLFGVSTTSPEETCAQVIREAKRTAPSIVYVPHIHVWWEIVGPTLKATFTTLLQNIPSFAPVLLLATSDKPHSALPEEVQELFIRDYGEIFNVQLPDKEERTKFFEDLILKQAAKPPISKKKAVLQALEVLPVAPPPEPRSLTAEEVKRLEEQEEDTFRELRIFLRNVTHRLAIDKRFRVFTKPVDPDEVPDYVTVIKQPMDLSSVISKIDLHKYLTVKDYLRDIDLICSNALEYNPDRDPGDRLIRHRACALRDTAYAIIKEELDEDFEQLCEEIQESRKKRGCSSSKYAPSYYHVMPKQNSTLVGDKRSDPEQNEKLKTPSTPVACSTPAQLKRKIRKKSNWYLGTIKKRRKISQAKDDSQNAIDHKIESDTEETQDTSVDHNETGNTGESSVEENEKQQNASESKLELRNNSNTCNIENELEDSRKTTACTELRDKIACNGDASSSQIIHISDENEGKEMCVLRMTRARRSQVEQQQLITVEKALAILSQPTPSLVVDHERLKNLLKTVVKKSQNYNIFQLENLYAVISQCIYRHRKDHDKTSLIQKMEQEVENFSCSR
B7: MAGE-B2 (protein, UniProt O15479 1-319, looked up)
Melanoma-associated antigen B2: MPRGQKSKLRAREKRRKARDETRGLNVPQVTEAEEEEAPCCSSSVSGGAASSSPAAGIPQEPQRAPTTAAAAAAGVSSTKSKKGAKSHQGEKNASSSQASTSTKSPSEDPLTRKSGSLVQFLLYKYKIKKSVTKGEMLKIVGKRFREHFPEILKKASEGLSVVFGLELNKVNPNGHTYTFIDKVDLTDEESLLSSWDFPRRKLLMPLLGVIFLNGNSATEEEIWEFLNMLGVYDGEEHSVFGEPWKLITKDLVQEKYLEYKQVPSSDPPRFQFLWGPRAYAETSKMKVLEFLAKVNGTTPCAFPTHYEEALKDEEKAGV
B8: MART1 (protein, UniProt Q16655 1-118, looked up)
Melanoma antigen recognized …: MPREDAHFIYGYPKKGHGHSYTTAEEAAGIGILTVILGVLLLIGCWYCRRRNGYRALMDKSLHVGTQCALTRRCPQEGFDHRDSKVSLQEKNCEPVVPNAPPAYEKLSAEQSPPPYSP

Test system: TSA
[1] = TSA expression rate in Esophageal
[2] = TSA expression rate in GASTRIC cancer
[3] = TSA expression rate in HEAD and NECK
[4] = TSA expression rate in LUNG cancer
[5] = TSA expression rate in BLADDER cancer
[6] = TSA expression rate in MELANOMA
[7] = TSA expression rate in PROSTATE cancer

Molecule	TSA Expression Rate (ER) (BRAIN) [%]	TSA Expression Rate (ER) (BREAST) [%]	TSA Expression Rate (ER) (HCC) [%]	TSA Expression Rate (ER) (LUNG) [%]	TSA Expression Rate (ER) (OVARIAN) [%]	Expression Rate (ER) % (TSA expression rate in CRC) [%]	Expression Rate (ER) % [1] [%]	Expression Rate (ER) % [2] [%]	Expression Rate (ER) % [3] [%]	Expression Rate (ER) % (TSA expression rate in LEUKEMIAS) [%]	Expression Rate (ER) % [4] [%]	TSA Expression Rate (ER) (THYROID) [%]	Expression Rate (ER) % [5] [%]	Expression Rate (ER) % (TSA expression rate in Kidney) [%]	Expression Rate (ER) % [6] [%]	Expression Rate (ER) % [7] [%]
B1	0	10	26	54	83	7	55	10								
B2	0		39	36		4		0	0							
B3	6															
B4	0									3	0					
B5	0	2					22	8	17		15	0	12	5	5	
B6		52		23		58		43							0	0
B7	0		61	43		0		0	45				0	0	22	0
B8	0											0			89	
